Data reported in US20240285785A1, “TARGETING SORTILIN” (priority 2022, published 2024).

Assays:
MDA-MB-231 tumor cells = assay: MDA-MB-231 murine xenograft efficacy model; type: in vivo, BALB/c Nude mice
[1] = Murine plasma stability assay; type: in vitro ADME; conditions: mouse, 37° C., read-out: Murine plasma stability assay, T1/2
Experimental: Frozen plasma was thawed at 37° C. and centrifuged at 4000 rpm to remove any clots and transferred to 96-well reaction plates by WuXi AppTec. Test compounds were added to the reaction plate at a final concentration of 2 μM and either stopped immediately or incubated at 37° C. for 5 minutes, 10 minutes, 30 minutes, 60 minutes, or 120 minutes. At the end of incubation, stop solution consisting of 200 ng/mL tolbutamide and 200 ng/mL labetalol in ACN was added to precipitate protein and mixed thoroughly. Samples were then transferred to a bioanalysis plate and shaken for 10 minutes prior to HPLC-MS/MS analysis of percent remaining compound.

## CC[C@H](C)[C@@H]([C@@H](CC(=O)N1CCC[C@H]1[C@H](OC)[C@@H](C)C(=O)N[C@H](C)[C@@H](O)c1ccccc1)OC)N(C)C(=O)[C@@H](NC(=O)[C@H](C(C)C)N(C)C(=O)OCc1ccc(NC(=O)[C@H](CCCNC(N)=O)NC(=O)[C@@H](NC(=O)CCCC(=O)NCCC(=O)N(C)CC(=O)N(C)CC(=O)N(C)CC(=O)N(C)CC(=O)N[C@@H](C)C(=O)N2CCC[C@H]2C(=O)N[C@@H](CCCNC(=N)N)C(=O)N[C@@H](Cc2c[nH]c3ccccc23)C(=O)N[C@@H](CC(=O)O)C(=O)N[C@@H](C)C(=O)N2CCC[C@H]2C(=O)N[C@@H](CC(C)C)C(=O)N[C@@H](CCCNC(=N)N)C(=O)N[C@@H](CC(=O)O)C(=O)N2CCC[C@H]2C(=O)N[C@@H](C)C(=O)N[C@@H](CC(C)C)C(=O)N[C@@H](CCCNC(=N)N)C(=O)N[C@@H](CCC(N)=O)C(=O)N[C@@H](CC(C)C)C(=O)N[C@@H](CC(C)C)C(=O)O)C(C)C)cc1)C(C)C [PRGN_WT_PDC]
MDA-MB-231 tumor cells; 3 mg/kg i.v. QW×4, day 22 (Example 8)
  tumor growth inhibited relative to vehicle: 96%
MDA-MB-231 tumor cells; 3, 1, 0.3 mg/kg i.v. QW x 4
  tumor growth inhibition: dose-dependent tumor growth inhibition
MDA-MB-231 tumor cells; Example 6, PDC 3, 1, 0.3 mg/kg, free MMAE at equivalency to 3 mg/kg PDC
  body weight variation: mirrored that observed with vehicle treatment
MDA-MB-231 tumor cells; Example 8, PDC 3 mg/kg, free MMAE 0.6 mg/kg, i.v. QW×4
  body weight loss: body weight loss tracked each other
[1]
  half-life at 2 μM: 17.1 min
